Experimental findings from the DeepSol protein solubility set are described below.

The series can be described thus: soluble on expression in E. coli; label from the status in PepcDB or PDB records.
As for “MEKAADLQDTASLTLKFKFNPKLGIDNPVLSLAEDHDPYDPWSLERPRFCLLSKEEGKSFGFHLQQELGRAGHVVCRVDPGTSAQRQGLQEGDRILAVNNDVVEHEDYAVVVRRIRASSPRVLLTVLARHAHDVARAQLGEDAHLCPTLGPGVRPRLCHIVKDEGGFGFSVTHGNQGPFWLVLSTGGAAERAGVPPGARLLEVNGLWQSGQQVTLLVAGPEVEEQCRQLGLPLAAPLAEGWALPTKPRCLHLEKGPQGFGFLLREEKGLDGRPGQFLWEVDPGLPAKKAGMQAGDRLVAVAGESVEGLGHEETVSRIQGQGSCVSLTVVDPEADRFFSMVRLSPLLFLENTEAPASPQGSSSASLVETEDPSLEDTSVPSVPLGSRQCFLYPGPGGSYGFRLSCVASGPRLFISQVTPGGSAARAGLQVGDVILEVNGYPVGGQNDLERLQQLPEAEPPLCLKLAARSLRGLEAWIPPGAAEDWALASDLL”, the “soluble on expression in E. coli” value is “soluble”. Under “MGSDKIHHHHHHMKDLLTRRFVLNSKEVREGDVFVAVKGKRFDGHDFIDEALRNGAYAIIAERKTVNSDRIFLVESSVDTLAKLAREKLGNFSGTVVGVTGSSGKTTTKEILYNLLKNKRSVFKTPGNMNTEYGLPLSILNDYKGEEILVLEMAASRPGDIAHLCKIAPPDVAVLLNVGSAHLEFFGTRERIMETKMEIIKHSKENAIAVTLFDDPDLRKEVPRYRNTLFFGKEGGDSVLKDWWYYEGSTIAEFEAFDSLFTVKLSGYWNGGQLLNIAASLCVMRTLGETVDIFDLASLKTVPGRFNVREKKGVLIVDDTYNASPEAFQTSIEALLRFPGKKFAVVGAMKELGERSKEFHEELGERLNVLDGVYVFLSEPEAEWIKSKKIILKSDDPEKIAKDLATRVKKGDVVLFKASRAVRIERVLEM” stands “not soluble”; under “MANVLVINFPGEGHINPTLAIISELIRRGETVVSYCIEDYRKKIEATGAEFREFENFLSQINIMERVNEGGSPLTMLSHMIEASERIVTQIVEETKGEQYDYLLYDNHFPVGRIIANVLQLPSISSCTTFAFNQYITFNDEQESRQVDETNPLYQSCLAGMEKWNRQYGMKCNSMYDIMNHPGDITIVYTSKEYQPRSDVFDESYKFVGPSIATRKEVGSFPMEDLKGEKLIFISMGTVFNEQPELYEKCFEAFKGVEATVILAVGKKINISQFENIPNNFKLYNYVPQLEVLQHADVFVTHGGMNSSSEALYYGVPLVVIPVTGDQPLVAKRVNEVGAGIRLNRKELTSELLRETVKEVMYDVTFKENSRKVGESLRNAGGYKRAVDEIFKMKMNSYLKLK”, “not soluble”. Regarding “MGHHHHHHSHMTLQALSEANRRLWMEAMDGKEPIYHSPITKQQEMELNEVGFKFVRKCINIIETKGIKTEGLYRTVGSNIQVQKLLNAFFDPKCPGDVDFHNSDWDIKTITSSLKFYLRNLSEPVMTYRLHKELVSAAKSDNLDYRLGAIHSLVYKLPEKNREMLELLIRHLVNVCEHSKENLMTPSNMGVIFGPTLMRAQEDTVAAMMNIKFQNIVVEILIEHFGKIYLGPPEESAAPPVPPPRVTARRHKP”, the “soluble on expression in E. coli” value is on record as “not soluble”.

For the sequence “MENSGHKVYYCMGSPLFALNAGRMENNLVAFSGGLSINKQLQKEGKPGINVSPSFINENNPDTIFISGFLSRPLDEFYTLCRQYGIETDAVKQQRVYEVPPSWDFGNPRWILGLMYIADKLYPGNSGIDLEKEADEFYRQFYGMPYLEHHHHHH”, the “soluble on expression in E. coli” value is recorded as “soluble”. Under “MGSSHHHHHHGGTGENLYFQGGSGSSCRGIVVAGVTNQARTQMAEAFLRAFTGGRVFVCSGGVHHLGTVHPLAVVTMAEMGIDVSRQSSSSLAGVRRQRETYDVYVSVDAPYTERTSDRYQRRYTDTQAAQQSSMGAAGLSAPCASSTSDFCDPLLASATPAHWTVSQDTTDGRQSWTLWSPRNPAIYHERSTRKLQDHLYEGEPLFMRVRPHGLRKACRVQRRWEVPELTQRFALETEAEQKARFVQARDLLGSLALVLVRDLEREYGETMLDEAAVAAYEKVAATEC” stands “not soluble”.
